The nanobody polyreactivity screen of Harvey et al. (2022)

Assay: yeast display, Sf9 membrane polyspecificity reagent, FACS + sequencing; frameworks hold sequencing errors
Outline: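 Galactose-induced (36–48 hours) yeast carrying a synthetic nanobody display library were exposed to 10% biotinylated, detergent-solubilized Sf9 membrane reagent at 4 °C for 1 hour. FACS followed streptavidin microbead enrichment, using low and high (top ~1%) gates for expression (anti-HA) and reagent binding (streptavidin). Colony PCR, MiSeq 2 × 250 sequencing and CDR-length filtering followed. Labels for polyreactivity reflect the gate of origin.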

Sequence	polyreactivity (PSR sort gate)
QVQLVESGGGLVQAGGSLRLSCAASGFIFKANAMGWYRQAPGKERELVASITFGGDSTYYADSVKGRFTISRDNAKNTVYLQMNSLKPEDTAVYYCNTRRRSYRTYYYWGQGTQVTVLS	low polyreactivity
QVQLVESGGGLVQAGGSLRLSCAASGFIFKHYAMGWYRQAPGKERELVAAISRSTGRTNYADSVKGRFTISRDNAKNTDYLQMNSLKPEDTAVYYCAAYRYLRYDYWGQGTQVTVSS	high polyreactivity
QVQLVESGGGLVQAGGSLRLSCAASGFIFKNYAMGWYRQAPGKERELVAAITSSGGNTYYADSVKGRFTISRDNAKNTVYLQMNSLKPEDTAVYYCNARFRTLYWGQGTQVTVSS	high polyreactivity
QVQLVESGGGLVQAGGSLRLSCAASGFIFKRNAMGWYRQATGNERELVAAITKSGVNTYYADSVKGRFTISRDNAKNTVYLQMTSLKPEDTAVYYCAKTLTYGFRRYDYWGQGTQVTVSS	high polyreactivity
QVQLVESGGGLVQAGGSLRLSCAASGFIFKRYAMGWNRQAPGKVRELVAAITSRGGSTYYADSVKGRFTISRDNAKNTVYLQMNSLKPEDTAVYYCNAGTSAGSYDYWGQGTQVTVSS	high polyreactivity
QVQLVESGGGLVQAGGSLRLSCAASGFIFKRYAMGWYRQAPGKERELVATISNSGGRTYYADSVKWRFTISRDNAKNTVYLQMNSLKPEDTAVYYCAALPFWWGGYWGQGTQVTVSS	high polyreactivity
QVQLVESGGGLVQAGGSLRLSCAASGFIFKRYVMGWYRQAPGKERELVAGITRSGSSTSYADSVKGRFTISRDNAKNTVYLQMNSLKPEDTAVYYCAARAWKKLDYWGQGTQVTVSS	high polyreactivity
QVQLVESGGGLVQAGGSLRLSCAASGFIFKVNAMGWYRQAPGKERGYVYADSVKGRFTISRDNAKNTVYLQMNSLKPEHTAVYYCAAEPGEGCDYWGQATQVTVSS	low polyreactivity
QVQLVESGGGLVQAGGSLRLSCAASGFIFKWNAMGWYRQAPGKERELVAAITSGGGTYYADSVKGRFTISRDNAKNTVYLQMNSLKPEDTAVYYCAALGRYWPARRFDYWGQGTQVTVSS	high polyreactivity
QVQLVESGGGLVQAGGSLRLSCAASGFIFKYYAMGWYRQAPGKERELVAAIRSGGGTNYADSVKGRFTISRDNAKNTVYLQMNSLKPEDTAVYYCAARGYTSYKHFGYWGQGTQVTVSS	high polyreactivity
QVQLVESGGGLVQAGGSLRLSCAASGFIFKYYAMGWYRQAPGKERELVAAITGSGGRTYYADSVKGRFTISRDNAKNTVYLQMNSLKPEDTAVYYCAADLGGNSRLDYWGQGTQVTVSS	high polyreactivity
QVQLVESGGGLVQAGGSLRLSCAASGFIFKYYTMGWYRQAPGKERELVAAISKNAGSTYYADSVKGRFTISRDNAKNTVYLQMNSLKPEDTAVYYCARTYSTWYYYWGQGTQVTVSS	high polyreactivity
QVQLVESGGGLVQAGGSLRLSCAASGFIFLEYAMGWYRQAPGKERELVAAISSRGTRTYYADSVKGRFTISRDNAKNTVYLQMNSLKPEDSAVYYCARVWSQSSNYEYDYWGQGTQVTVSS	high polyreactivity
QVQLVESGGGLVQAGGSLRLSCAASGFIFLKYRMGWYRQAPGKEREFVAAISRRGGSTNYADSVKGRFTISRDNEKNTVYLQMNSLKPEDTAVYYCGTDAFAGPVSYYYWGQGTQVSVSS	high polyreactivity
QVQLVESGGGLVQAGGSLRLSCAASGFIFLRYGMGWYRQAPGKERELVASIDSSGGSTYADSVKGRFTISRDNEKNTVFLQMKSLKPEDTAVYYCAADYYIVSVRDYWGQGTQVTVSS	low polyreactivity
QVQLVESGGGLVQAGGSLRLSCAASGFIFLYNAMGWYRQAPGKERELVAAITSSGGTTYYADSVKGRFTISRDNAKNTVYLQMNSLKPEDTAVYYCAARYTGRNGGSTTPEYDYWGQGTQVTVSS	low polyreactivity
QVQLVESGGGLVQAGGSLRLSCAASGFIFLYYAMGWYRQAPGKERELVAAITTRGGRTYYADSVKGRFTISRDNAKNTVYLQMNSLIPEDTAVYYCAADHLYWGLEYESWGQGTQVTVSS	low polyreactivity
QVQLVESGGGLVQAGGSLRLSCAASGFIFNFYAMGWYRQAPGKERELVAAISRNGGSTYYADSVKGRFTISRDNAKNTVYLQMNSLKPEDTAVYYCNAVGSYGDFGYWGQGTQVTVSS	high polyreactivity
QVQLVESGGGLVQAGGSLRLSCAASGFIFNHYAMAWYRQAPGKEREFVAAISWSGGSTYYADSVNGRFTISLDNAKNTVYLQMNSLKPEDTAVYYCGASYNGLWHGDYDYWGQGTQVTVSS	low polyreactivity
QVQLVESGGGLVQAGGSLRLSCAASGFIFNRYAMGRYRQAPGKERELVAAISSGGNTHYADSVKWRFTISRDNAKNTVLLQMNSLKPEDTAVYYCAKAFRHSTFFAPYDYWGQGSQVTVSS	low polyreactivity
QVQLVESGGGLVQAGGSLRLSCAASGFIFNSYAMGWYRQAPGKERELVAAISRRGSSTYYADSVKGRFTISRDNAKNTVYLQMNSLKPEDTAVYYCAKRDRSTSWYLRDYWGQGTQVTVSS	high polyreactivity

Sequence	polyreactivity (PSR sort gate)
QVQLVESGGGLVQAGGSLRLSCAASGFIFNVYDMGWYRQAPGKERELVAAISTSGSNTYYADSVKVRFTISRDNAKNTVYLQMNSLKPEDTAVYYCNAVRVRVRWHYYAVYYWGQGTQVTVSS	high polyreactivity
QVQLVESGGGLVQAGGSLRLSCAASGFIFNYYAMGWYRQAPGKEREFVAAITWRGGSTNYADSVKGRFTISRDNAKNTVYLQMNSLKPEETAVYYCAAYSVWGGSYLALDYWGQGTQVTVSS	low polyreactivity
QVQLVESGGGLVQAGGSLRLSCAASGFIFNYYAMGWYRQAPGKERELVAAISPSGDNTYYADSVKGRFTISRDNAKNTVYLQMNSLKPEDTAVYYCNKVQGSWRVPYYYWGQGTQVTVSS	high polyreactivity
QVQLVESGGGLVQAGGSLRLSCAASGFIFNYYTMGWYRQAPGKEREFVAAIRRSGTRTYYADSVKGRFTISRDNAKNTVYLQMNSLKPEDTAVYYCAADVYRTYGMDYWGQGTQVTVSS	high polyreactivity
QVQLVESGGGLVQAGGSLRLSCAASGFIFPANAMGWYRQAPGKERQFVAAITRRGGSTYYADSVKGRFTISRDNAKNTVYLKMNSLKPEDTAVYYCAARVLSLYTYYYWGQGTQVTVYS	high polyreactivity
QVQLVESGGGLVQAGGSLRLSCAASGFIFPGNAMGWYRPAPGKERELVAAISNSGSRTYYADSVKGRLTISRDNAKNTVYLQMNSLIPEDTAVYYCNADVHIRGWPYDYWGQGTQVTVSS	low polyreactivity
QVQLVESGGGLVQAGGSLRLSCAASGFIFPGNVMGWYRQAPGKERELVAAITWSGGSTYYADSVKGRFTISRDNAKNTVYLQMNSLKPEDTAVYYCNADAFSFFGYLERMEYWGQGTLVTVSS	low polyreactivity
QVQLVESGGGLVQAGGSLRLSCAASGFIFPGYAMGWYRQAPGKERELVAAISVSGGSTFYADSVKGRFTISRDNAKYTVYLQMNSLKPEDTAVYYCNARGYTWSYPLGIRVRYDYWGQGTQVTVSS	high polyreactivity
QVQLVESGGGLVQAGGSLRLSCAASGFIFPGYAMGWYRQAPGKERELVATISRRGGSTYYADSVKGRFTISRDNAKNTVYLQMNSLQPEDTAVYYCNRIVTYGWQYDYDYWGQGTQVTVSS	high polyreactivity
QVQLVESGGGLVQAGGSLRLSCAASGFIFPHYTMGWYRPAPGKERELVAAISSSGGSTYYADSVKGRFTISRDNANNTVYLQMNSLKPEDTAVYYCAADWSITYGDGGYWGQGTQVTVSS	low polyreactivity
QVQLVESGGGLVQAGGSLRLSCAASGFIFPNNAMGWYRHAPGKERELVARISYGGGDTHYADSVKGRFTISRDNAKNTVYLQMNSLKPEDTAVYYCAVKDGQDDYWGQGTQVTVSS	low polyreactivity
QVQLVESGGGLVQAGGSLRLSCAASGFIFPRYAMGWYRQAPGKERELVAAISYSGGSTYYADSVKGRFTISRDNAKNTVYLQMNSLKPEDTAVYYCNAYFLSQYQRAYRDDYWGQGTQVTVST	high polyreactivity
QVQLVESGGGLVQAGGSLRLSCAASGFIFPRYAMGWYRQAPGKERELVAAISYSGGSTYYADSVKGRFTISRDNAKNTVYLQMNSLKPEDTAVYYCNTAPWWRTSSDYEYWGQGTQVTVSS	high polyreactivity
QVQLVESGGGLVQAGGSLRLSCAASGFIFPRYTMGWYRQAPGKERELVASITRGVRTHYADSVKGRFTISRDNAKNTVYLQMNSLKPEDTAVYYCARRNDYVYTRHFDSWGQGTQVTVSS	high polyreactivity
QVQLVESGGGLVQAGGSLRLSCAASGFIFPTYAMGWYRQAPGKEREFVASITRRGGSTYYADSVKGRFTISRDNAKNTVYLQMNSLKPEDTAVYYCAAGYYGFRGGGSDYWGQGTQVTVSS	high polyreactivity
QVQLVESGGGLVQAGGSLRLSCAASGFIFPTYAMGWYRQAPGKERELVATITTNAGGTYYADSVKGRFTISRDNAKNTVYLQMNSLKPEDTAVYYCAHDYDGYVWDTEYDYWGQGTQVTVSS	low polyreactivity
QVQLVESGGGLVQAGGSLRLSCAASGFIFPVYTKGWYRQAPGKERELVAAITQIGGSTHYADSVKGRFTISRDNAKNTVYLQMNSLKPEDTAVDYCNAVPSYGTEYDYWGQGTQVTVSS	low polyreactivity
QVQLVESGGGLVQAGGSLRLSCAASGFIFPVYTMGWSRQAPGKERELVGAITQIGGSTHYADSVKGRFSISRDNAKNTVYIQMNSLTPDDTAVYYCNAVPSYGTEYDYWGQGTHVTVSS	low polyreactivity
QVQLVESGGGLVQAGGSLRLSCAASGFIFPWYAMGWSRQAPGKERELVAIISWDTGSTYYADSVKGRFTISRDNAKNTVYLQMNSLKPEDTAVYYCVAYVGSTYSAPEYYWGQGTQVTVSS	low polyreactivity
QVQLVESGGGLVQAGGSLRLSCAASGFIFPWYAMGWYRQAPGKERELVAIISWDTGSTYYADSVKGRFTISRDNAKNTVYLQMNSLKPEDTAVYYCAAAYYYYVSGWFDYWGQGTQVTVSS	low polyreactivity
